Here are results for one protein from patent US20080188404.

In data set [1] the target is hybrid protein DAF-CR1B.
For data set [2], the target named is hybrid protein DAF-MCP.
Sequence of hybrid protein DAF-MCP (chain, as listed by the source): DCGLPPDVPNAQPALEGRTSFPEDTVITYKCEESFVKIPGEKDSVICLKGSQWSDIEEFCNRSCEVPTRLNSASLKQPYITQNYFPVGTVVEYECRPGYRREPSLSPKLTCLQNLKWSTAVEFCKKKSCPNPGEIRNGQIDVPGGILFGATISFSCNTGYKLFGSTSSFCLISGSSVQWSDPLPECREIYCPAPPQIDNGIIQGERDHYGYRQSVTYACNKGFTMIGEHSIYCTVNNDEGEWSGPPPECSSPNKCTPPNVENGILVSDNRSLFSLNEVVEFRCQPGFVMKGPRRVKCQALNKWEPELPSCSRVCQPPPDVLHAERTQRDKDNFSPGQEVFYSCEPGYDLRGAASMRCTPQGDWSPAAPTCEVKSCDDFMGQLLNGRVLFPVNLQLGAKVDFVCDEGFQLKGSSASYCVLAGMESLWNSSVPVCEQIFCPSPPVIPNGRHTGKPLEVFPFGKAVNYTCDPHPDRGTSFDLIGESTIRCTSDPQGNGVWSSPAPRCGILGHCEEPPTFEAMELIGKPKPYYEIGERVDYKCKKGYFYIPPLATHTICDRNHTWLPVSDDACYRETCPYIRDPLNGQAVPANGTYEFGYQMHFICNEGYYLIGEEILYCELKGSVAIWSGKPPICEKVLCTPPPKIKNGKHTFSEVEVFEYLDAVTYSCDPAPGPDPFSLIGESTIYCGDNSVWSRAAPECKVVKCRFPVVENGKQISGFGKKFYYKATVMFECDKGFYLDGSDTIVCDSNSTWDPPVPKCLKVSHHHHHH

Sequence of hybrid protein DAF-CR1B (chain, as listed by the source): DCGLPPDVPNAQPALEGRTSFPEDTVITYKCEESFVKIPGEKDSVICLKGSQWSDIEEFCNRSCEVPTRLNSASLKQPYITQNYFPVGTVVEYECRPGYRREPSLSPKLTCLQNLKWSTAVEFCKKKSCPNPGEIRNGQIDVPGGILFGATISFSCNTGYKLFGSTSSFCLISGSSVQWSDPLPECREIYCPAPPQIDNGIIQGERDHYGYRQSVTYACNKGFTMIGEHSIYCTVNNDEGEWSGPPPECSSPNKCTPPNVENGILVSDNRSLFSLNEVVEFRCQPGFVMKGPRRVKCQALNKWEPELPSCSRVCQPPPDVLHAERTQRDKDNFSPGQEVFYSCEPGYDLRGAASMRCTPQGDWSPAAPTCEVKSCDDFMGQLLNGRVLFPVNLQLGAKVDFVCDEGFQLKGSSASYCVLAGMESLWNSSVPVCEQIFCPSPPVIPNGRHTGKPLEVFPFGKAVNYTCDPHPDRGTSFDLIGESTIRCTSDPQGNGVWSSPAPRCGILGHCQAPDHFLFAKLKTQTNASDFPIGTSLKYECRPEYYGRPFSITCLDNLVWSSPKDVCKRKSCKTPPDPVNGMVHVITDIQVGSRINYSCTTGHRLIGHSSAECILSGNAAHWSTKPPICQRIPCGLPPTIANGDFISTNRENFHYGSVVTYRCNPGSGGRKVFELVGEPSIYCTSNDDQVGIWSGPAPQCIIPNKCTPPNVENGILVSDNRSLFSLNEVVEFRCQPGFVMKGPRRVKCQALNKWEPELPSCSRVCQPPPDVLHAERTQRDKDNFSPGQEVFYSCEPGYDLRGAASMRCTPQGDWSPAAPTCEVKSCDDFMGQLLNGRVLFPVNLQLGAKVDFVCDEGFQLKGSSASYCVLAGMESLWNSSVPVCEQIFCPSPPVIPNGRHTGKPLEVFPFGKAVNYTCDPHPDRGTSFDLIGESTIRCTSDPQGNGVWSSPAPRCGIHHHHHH

B1: human factor I (protein)
chain: KVTYTSQEDLVEKKCLAKKYTHLSCDKVFCQPWQRCIEGTCVCKLPYQCPKNGTAVCATNRRSFPTYCQQKSLECLHPGTKFLNNGTCTAEGKFSVSLKHGNTDSEGIVEVKLVDQDKTMFICKSSWSMREANVACLDLGFQQGADTQRRFKLSDLSINSTECLHVHCRGLETSLAECTFTKRRTMGYQDFADVVCYTQKADSPMDDFFQCVNGKYISQMKACDGINDCGDQSDELCCKACQGKGFHCKSGVCIPSQYQCNGEVDCITGEDEVGCAGFASVTQEETEILTADMDAERRRIKSLLPKLSCGVKNRMHIRRKRIVGGKRAQLGDLPWQVAIKDASGITCGGIYIGGCWILTAAHCLRASKTHRYQIWTTVVDWIHPDLKRIVIEYVDRIIFHENYNAGTYQNDIALIEMKKDGNKKDCELPRSIPACVPWSPYLFQPNDTCIVSGWGREKDNERVFSLQWGEVKLISNCSKFYGNRFYEKEMECAGTYDGSIDACKGDSGGPLVCMDANNVTYVWGVVSWGENCGKPEFPGVYTKVANYFDWISYHVGRPFISQYNV
As to B1, the “cofactor assay: factor I cleavage of C3b, Western blot” value in data set [1] is on record as “DAF-CR1B acts as cofactor for factor I as shown by the appearance of a band at 29 kDa”. The “cofactor assay: factor I cleavage of C3b, SDS-PAGE and Western blot with anti-human C3 polyclonal antibody” value in data set [2] was “Supernatants with factor I and either DAF-MCP or DAF-CR1BB both exhibited 43 and 40 kDa bands corresponding to formation of iC3b and C3c, respectively”.
